From the nanobody polyreactivity screen of Harvey et al. (2022) come the findings set out here.

The data set is described as follows: yeast display, Sf9 membrane polyspecificity reagent, FACS + sequencing; frameworks hold sequencing errors. The procedure, abridged:
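Synthetic nanobody libraries on Saccharomyces cerevisiae BJ5465 were galactose-induced for 36–48 hours, stained 1 hour at 4 °C with 10% biotinylated, detergent-solubilized Sf9 membrane reagent and enriched on streptavidin microbeads. FACS then separated cells into low and high (top ~1%) gates by anti-HA (expression) and streptavidin (reagent binding) fluorescence. Genes were colony-PCR amplified, MiSeq 2 × 250 sequenced and CDR-length filtered. A clone's polyreactivity label is that of its gate of origin.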
Regarding “QVQLVESGGGLVQAGGSHRLSCAASGFIFYSNAMGWYRQAPGKERELVAAITSGGSTYYADSVKGRFTISRDNAKNTVYLQMNSLKPEDTAVYYCNKARRWRGYDYWGQGTLVTVSS”, the “polyreactivity (PSR sort gate)” value was “high polyreactivity”.
The value for “QVQLVESGGGLVQAGGSLRLICAASGLIFDYYRMGWYRQATGKQRELVAAITSSGSRTYYADSVKGRFTISRDNAKKTVYLQMNSLNPEDTAVYFCARGGGRRKGLVDYWGQGTQVTVSS” was “low polyreactivity”.
For “QVQLVESGGGLVQAGGTLPLSCAATGSILGYYAMGWYRHAPGKERELVAITSGDSTYYADSVKGRFTISRDNAKNTVYLQMNSLKPEDTAVYYCAADVVRGSRYNRYGYWGQGTQVTVSS”, the “polyreactivity (PSR sort gate)” value is given as “high polyreactivity”.
For “QVQLVESGGGLVQAGGSLRLSCAASGLTFKSYAMGWYRQAPGKERELVAAISWRGGRTYYADSVKGRFTISRDNAKNTVYLQMNSLKPEDTAVYYSNARSQQWWLSRYNYWGQGTQVTVSS”, the “polyreactivity (PSR sort gate)” value is “high polyreactivity”.
The value for “QVQLVESGGGLVQAGGSLRLSCAASGSTFYYYARGWYRQAPGKERELVAAISTSDGSTYYADSVKGRFTISRDNAKNTVYLQMNSLKPEDTAVYYCAADSYERFASYYYWGQGTQVTVSS” was “low polyreactivity”; that for “QVQLVESGGGLDQAGGSLRLSCAASGRTFGVYAMGWYRQAPGKERELVAAITGRGGSTYYADSVKGRFTISRDNAKNTVYLQMNSLKPEDTAVYYCNAELYEYQSWDDYWGQGTQVTVSS” was “low polyreactivity”.
Regarding “QVQLVESGGDLVQAGGSLRLSCAASGSIFYINAMGWYRQAPGKERELVASISYSGTSTYYADSVKGRFTISRDNAKNTFFLQMNSLKPEDTAVYYCNAEDTAGAGDGYWGEGTQVTVSS”, the “polyreactivity (PSR sort gate)” value was “low polyreactivity”.
Turning to “QVQLQESGGGLVQASGSLRLSCAASGNIFPDYFMGWYRLAPGKEREFVANITGGSTTNYADSVKGRFTISRDNAKNTLYLQMNSLKPEDTAVYYCAVNFGTVVLYLYWGQGTQVTVSI”, the “polyreactivity (PSR sort gate)” value was “high polyreactivity”.
As to “QVQLVESAGGLVQAGGSLRLSCAASGGIFDRYAMGWYRQAPGKERELVAAITSGGSTNYADSVKGRFTISRDNAKNTVYLQMNSLKPEDTAVYYCNADLGILSGVDEGPTFREYDYWGQGTQVTLSS”, the “polyreactivity (PSR sort gate)” value is given as “low polyreactivity”.
As for “QVQLVESGGGLVQAGGSLRLSCAASGLIFRRNAMGWYRQAPGKERELVAAISWSGGSTYYADSVKGRFTISRDNAKNTVYLQMNSLKPEDTAVYYCNRGGFSRYYYWGHGTQVTVSS”, the “polyreactivity (PSR sort gate)” value is “low polyreactivity”.
The result for “QVQLVESGGGLVQAGGSLRLSCAASGRIFYVYAMGWYRQAPRKERELVAAITSGGSTYYADSVKGRFTISRDNAKNTVYLQMNSLKPEDTAVYYCAAYNRGRFRPYRFEYWGQGTQVTVSS” reads “high polyreactivity”; that for “QVQLVESGGGLVQAGGSLRLSCAASGFTFSSYAMGWYRQAPGKERELVAAISYSGGSTYYADSVKGRFTISRDNAKNTVYLQMNSLKPEDTAVYYCAAQRGSEYYWGQGTQVTVSS”, “high polyreactivity”; that for “HLQLVESGGGLVQAGGSLRLSCAASGRIFPGYAMGWYRQAPGKERELVAAIDGTGTSTYYADSVKGRFTISRDNAKNTVDLQMNSLNPEDTAVYYCAADGRPRGTFGYWGQGTQVTVSS”, “low polyreactivity”.
“QVQLVESGGGLVQAGGSLRLSCAASGSIFDDYVMGWYRQAPGKERELVAAIRSSGGRTYYADSVKGRFTISRDNAKNTVYLQMISLKPEDTAVYYCNAVTKHRQSVPYAYGYWGQGTQVTVSS”: the “polyreactivity (PSR sort gate)” value is recorded as “high polyreactivity”.
Regarding “QVQLVESGGGLVQAGGSLRLSCAASGLTFYVYAMGWYRQAPGKERELVAAISSGGRTYYADSVKGRFTISRDNAKNTVYLQMNSLKPEDTAVYYCAAVRHRNYWGQGTQVTVSS”, the “polyreactivity (PSR sort gate)” value is listed as “high polyreactivity”.
The result for “QVQLVESGGGLVQAGGSLRLSCAASGSTFFVYDMGWYRQAPGKERELVAAISSGGTTTYADSVKGRFTISRDNAKNTVNLQMNSLKPEDTAVYYCNARQYTRPYAFDYWGQGTQVTVSS” reads “low polyreactivity”; that for “QVQLVESGGRLVQAGGSLRLSCAASGFTFNRYAMGGYRHAPGKERELVARITRGGSTKYADSVKGRFTISRDNAKNTVYLQMNSLKPEDTAVYYCAADYGGFLGYDYWGQGTQVTVSS”, “high polyreactivity”; that for “QVHLVESGGGIVQAGGSLRLSCAASGRTFGVNAMGWYRQAPGQEMELVAAISYSGASTFYADSLKGRFTISRDKAKNNVYLQMNSLKPEDTAVYYCAKRVVRYGKRMGYWGQGTQVTVSS”, “high polyreactivity”.
For the sequence “QVQLVESGGGLVQAGGSLRLSCAASGFTLTLRYAMGLYRQAPGKERELVAAISSGGRTKYADSVKGRFTISRDNAKNTVYLQMNSRKPEDTAVYYCNAVTQREYEEGDYWGQGTQVTVSS”, the “polyreactivity (PSR sort gate)” value was “high polyreactivity”.
The value for “QVQLVESGGGLVQAGGSLRLSCAASGSTFGWNAMGWYRQAPGKERELVAAINKSGGRTYYADSVKGRFTISRDNGKNTVYLQMNRLKPEDTAVYYCAAVTPIRVTSPDYDYWGQGTQVTVSS” was “low polyreactivity”; that for “QVQLVESGGGLVQAGGSLRLSCAASGRIFSFNAMGWYRQAPGKERELVAGITYGGNTYYADSVKGRFTISRDNAKNTVYLQMNSLKPEDTAVYYCAAVRGGRHDYWGQGTQVTVSS” was “low polyreactivity”.
For “QVQHVESGGGLVQAGGSLRLSCAASGFIFWYYAMGWYRKAPGKERELVAAISSRGGSTYYADSVKGRFTISRDNAKNTVYLQLNSLKPEDTAGYYCATPSKALPPHGRAILDYWGQGTQVTVSS”, the “polyreactivity (PSR sort gate)” value is “high polyreactivity”.
The result for “QVQLVEAGGGLVQAGGSLRLSCAAAGRTFSANALGWSRQAPGKERELVATITLRGGSTNYADSVKGPFTISRDHAKNTVYLQINSLKPEDTAVYDCNAYVNANVRRAYWGFDYWGQGTHVTVSS” reads “high polyreactivity”.
The value for “QVQLVESGGGLVQAGGSLRLSCAASGRISVKYAMGWYRQAPGKERELVAANDSSGGSTSYADSVKGRFTISRDNAKNTVYLQMNSLKPEDTAVYYCADDTWYRAGYFVFYYDYWGQGTQVTVSS” was “low polyreactivity”.
“QVQLVESGGGLVQAGGSLRLSCAASGSTFHANAMGWYRQAPGKERELVAAISRSGGSTNYADSVKGRFTISRDNAKNTVYLQMNSLKPEDTAVYYCAKRAWTGYGYYYWGQGTQVTVSS”: the “polyreactivity (PSR sort gate)” value is on record as “high polyreactivity”.
For the sequence “QQQLVESGGGVVQAGGSLRLSCAASGSTFSGYAMGWYIPAPGKERELVAAIRKSGGSKYYADSVKGRFTISRDNAKNTVYLQMNSLKPEDTAVYYCNARRDLQYSQYKRYGYWGQGTQVNVSS”, the “polyreactivity (PSR sort gate)” value was “low polyreactivity”.
In the case of “QVQLVESGGGLVQAGGSLRLSCAASGSTFNDYTMGWYRQAPGKERELVAAITDSGGSTYYADSVKGRFTISRDNAKNTVYLQMNSLKPEDTAVYYCAAAVPELYEVRYHDDYWGQGTQVTVSS”, the “polyreactivity (PSR sort gate)” value is “low polyreactivity”.
As for “QVQLVESGGGLVQAGGSLRLSCAASGYTFPLYAMGWYRQAPGKERELVADINIGGASTYYADSVKGRFTISRDNAKNTFYLQMKSLKPEDTAVYYCAKEYFDGFFPTFYYDYWGQGTQVTVSS”, the “polyreactivity (PSR sort gate)” value is reported as “low polyreactivity”.
With “QVQLVESGAGLVQAGGSLRLSCAASGRIFGYYAMGWYRQAPGQERELVATIRGGGSTNYADSVKGRFTISRDNAKNTVYLQMNSLKPEDTAVYVCAKPGAKWRGFDYWGQGTQVTLSS”, the “polyreactivity (PSR sort gate)” value is “low polyreactivity”.
On to “QVQLVESGGGLVQAGGSLRLSSAASGSTFQIYTMGWSRQAPGKESELVAAITNGGGSTYYADSVKGRFTISRDNAKNTVYLQMNSLKPEDTAVYYCAAEQRYPLIILYDDWGQGTQVTVSS”, for which the “polyreactivity (PSR sort gate)” value was “low polyreactivity”.
Consider “QVQLVESGGGLVQAGGSLRLSCAASGSIFRAYAMGGYRQAPGKERELVAAINWTDGSTYYAASVKGRFTISRDYAKNTVYLQMNSLKPEDTAVYYCAKDSMARHNYWGQGTQVTVSS”, for which the “polyreactivity (PSR sort gate)” value was “low polyreactivity”.
The result for “QVQLVESGGGLVQAGGSLRLSCAASGITFFLYAMGWYRQAPGKERELVAVISASGGSTYYADSVKGRFTISRDNAKNTVYLQMNSLKPDDTAVYYCNAYGAFIGYDSWGQGTQVTVSS” reads “high polyreactivity”; that for “QVQLVESGGGLVQAGGSLRLSCAASGFTFWRYAMGWYREAPGKERELVAAITGLGRTNYADSVKGRFTISRDNAKNTVYLQMNSLKPEDTADYYCNVVRVYRYDYWGQGTQVTVSS”, “high polyreactivity”.
Turning to “QVQLVESGGGLVQAGGSLRLSCAASGITFNVNAMGWYRQAPGKERELVAAISWRGGSTYYADSVKGRFTISRDNAKNTVYLQMNSLKPEDTAVYYCAAKLDGSSYYYWGQGTQVTVSS”, the “polyreactivity (PSR sort gate)” value is “low polyreactivity”.
On to “QVQLVESGGGIVQAGGRLRLSCDASGSTFSRYTMGWYRQAPGKEREFVAAIRTSGGRTYEDSVKGRFTISRDNAKNTVYVQMNSLKPEDTAVYYCAATRYYGYNTKYEYWGQGTQVTVSS”, for which the “polyreactivity (PSR sort gate)” value is on record as “high polyreactivity”.
For the sequence “QVQLVESGGGLVQAGGSLSLSCAASGITFSGNAMGWYRQAPGKERELVAAITWRGDNTYYADSVKGRFTISRDNAKNTVYLQMNSLKPEDTAVYYCAAKSPLFGLTSYPGPDDSWGQGTQVTVSS”, the “polyreactivity (PSR sort gate)” value is recorded as “low polyreactivity”.
Consider “QVQLVESGGGLVQAGGSLRLSCAASGIILKRNAMGWYRQAPGKERELVAAITSGGTTSYADSVKGRFTISRDNAKNTVYLQLNSLKPEDTAVYYCATRKPVSVYRFAPVYKNSNYWGQGTQVTVSS”, for which the “polyreactivity (PSR sort gate)” value was “high polyreactivity”.
With “QDQLVESGGGLVQAGGSLRLSCAASGSTFSVYAMGWYRRAPGKERELVATIRGRGGSTSYADSVKGRFTISRDNAKNTVYLQMNSLKPEDTAVYYCAARVVRDWASKRIILALSNYVYWGQGTHVTVSS”, the “polyreactivity (PSR sort gate)” value is “high polyreactivity”.
Turning to “QVQLVESGGGLVQAGGSLRLSCAASGSTFTDYDMGWYRPAPGKERELVAAISSGGSTYYADSVKGRFTISRDNAKNTVYLQMNSLKPEDTAVYYCAAVLGVWGGVGSEGDYWGQGTQVTVSS”, the “polyreactivity (PSR sort gate)” value is given as “low polyreactivity”.
Turning to “QVQLVESGGGLVQAGGSLRLSCAASGMIFFNYYAMGWYRQAPGKESELVAAIRYGGGSTYYADSVKGRFTISRDNGKNTVYLQMNSLKPEDTAVYYCAARFKGYYRYGYWGQGTQVTVSS”, the “polyreactivity (PSR sort gate)” value was “high polyreactivity”.
As for “QVQLVESGGGLVQAGGSLRLSCAATGSIFGDNAMGWYRQAPGKARELVAAITSSGGSTYYADSVKGRFTISRDNAKNTVYLQMNSLKPEDTAVYYCNADFGYGWYLRYDYWGQGSQVTVSS”, the “polyreactivity (PSR sort gate)” value was “high polyreactivity”.
